{"source": "patent US20230093265A1", "about": "(PROSMEDIC SWEDEN, published 2023)"}
{"molecular_target": "T1, purified prostasomes (from human seminal plasma) (human)", "T1 construct": "Not a single protein: exosome-type vesicle purified from seminal plasma", "assay": "direct ELISA, coated purified prostasomes, biotinylated scFv at 4 µg/mL, streptavidin-HRP", "procedure": "The wells were washed three times with PBS containing 0.05% Tween 20. Addition of biotinylated human synthetic scFv fragments 1:250 in row A were made and then 1:5 dilutions downwards. The plates were then incubated for 2 h at room temperature and then washed three times with PBS containing 0.05% Tween 20. 100 μL Streptavidine-HRP was added to the wells and incubated for 2 h at room temperature. The wells were washed three times with PBS containing 0.05% Tween 20. 100 μL TMB (tetramethylbenzidine) substrate was added to the wells, and incubated for 20 min and 25 μL 1 M H2SO4 was added to the plate. The plate was read at 450 nm.\nSeminal plasma was collected from the Reproduction Centre at Akademiska Hospital (Uppsala, Sweden) following previously described routines (Ronquist, G. K., et al., Prostasomal DNA characterization and transfer into human sperm. Mol Reprod Dev, 2011. 78 (7): p. 467-76). The seminal plasma was thawed and centrifuged at 3,000 g for 12 min. The supernatants were collected and centrifuged at 10,000 g for 30 min. The supernatants were then transferred to new tubes and ultra-centrifuged using a 90Ti rotor (Beckman Coulter, Brea, Calif., USA) at 100,000 g for 2 h. The pellets were resuspended in 0.02 M NaH2PO4, 0.15 M NaCl, pH 7.2 (PBS), overnight at 4° C. The resuspended pellets were then loaded on a chromatography column (XK 60/70, GE Healthcare, Uppsala, Sweden) packed with Superdex 200 gel. Fractions were collected at a flow rate of 5 mL/h. The fractions were then measured with a spectrophotometer where peaks at both 260 nm (nucleic acid) and 280 nm (proteins) corresponds to prostasomes. These fractions were collected and pooled and ultra-centrifuged at 100,000 g. The obtained pellet was resuspended in PBS. The purified prostasomes (1 mg/ml were diluted 1:250 in PBS and 100 μL were added per well in a F96 Polysorb NUNC Immunoplate (Thermo Fisher Scientific, Uppsala, Sweden). The plates were incubated for 2 h at ambient temperature and then washed three times with PBS containing 0.05% Tween 20 (P1379, Sigma-Aldrich). 120 μL 1% bovine serum albumin (BSA, Sigma-Aldrich) in PBS were added to the wells and the plate was incubated over night at ambient temperature. The plate was washed three times with PBS containing 0.05% Tween 20. 100 μL of the biotinylated monoclonal antibodies were added in dilution of 4 μg/mL in PBS to the wells.", "units": {"Absorbance": "absorbance at 450 nm"}}
{"binder": "human synthetic scFv fragment 12 (scFv, also called scFv 12) scFv: EVQLLESGGGLVQPGGSLRLSCAASGFTFSSYAMSWVRQAPGKGLEWVSAISGSGGSTYYASVKGRFTISRDNSKNTLYLQMNSLRAEDTAVYYCARTYYYFYPYGYYFDYWGQGTLVTVSSGGGGSGGGGSGGGGSDIQMTQSPSSLSASVGDRVTITCRASQSISSYLNWYQQKPGKAPKLLIYAASSLQSGVPSRFSGSGSGTDFTLTISSLQPEDFATYYCQQGFYLPTFGQGTKLEIKR", "Absorbance": 0.954}
{"binder": "human synthetic scFv fragment 6 (scFv, also called scFv 6) scFv: EVQLLESGGGLVQPGGSLRLSCAASGFTFSSYAMSWVRQAPGKGLEWVSAISGSGGSTYYASVKGRFTISRDNSKNTLYLQMNSLRAEDTAVYYCARYVRGYGYGYLDYWGQGTLVTVSSGGGGSGGGGSGGGGSDIQMTQSPSSLSASVGDRVTITCRASQSISSYLNWYQQKPGKAPKLLIYAASSLQSGVPSRFSGSGSGTDFTLTISSLQPEDFATYYCQQAPAYSPFTFGQGTKLEIKR", "Absorbance": 0.556}
{"binder": "human synthetic scFv fragment 11 (scFv, also called scFv 11) scFv: EVQLLESGGGLVQPGGSLRLSCAASGFTFSSYAMSWVRQAPGKGLEWVSAISGSGGSTYYASVKGRFTISRDNSKNTLYLQMNSLRAEDTAVYYCARYTYYVGGFDYWGQGTLVTVSSGGGGSGGGGSGGGGSDIQMTQSPSSLSASVGDRVTITCRASQSISSYLNWYQQKPGKAPKLLIYAASSLQSGVPSRFSGSGSGTDFTLTISSLQPEDFATYYCQQGFVLSTFGQGTKLEIKR", "Absorbance": 0.066}
{"binder": "human synthetic scFv fragment 9 (scFv, also called scFv 9) scFv: EVQLLESGGGLVQPGGSLRLSCAASGFTFSSYAMSWVRQAPGKGLEWVSAISGSGGSTYYASVKGRFTISRDNSKNTLYLQMNSLRAEDTAVYYCARSHYGSLDYWGQGTLVTVSSGGGGSGGGGSGGGGSDIQMTQSPSSLSASVGDRVTITCRASQSISSYLNWYQQKPGKAPKLLIYAASSLQSGVPSRFSGSGSGTDFTLTISSLQPEDFATYYCQQFSYTLSTFGQGTKLEIKR", "Absorbance": 1.29}
{"binder": "human synthetic scFv fragment 5 (scFv, also called scFv 5) scFv: EVQLLESGGGLVQPGGSLRLSCAASGFTFSSYAMSWVRQAPGKGLEWVSAISGSGGSTYYASVKGRFTISRDNSKNTLYLQMNSLRAEDTAVYYCARSYSWYSRGPSLDYWGQGTLVTVSSGGGGSGGGGSGGGGSDIQMTQSPSSLSASVGDRVTITCRASQSISSYLNWYQQKPGKAPKLLIYAASSLQSGVPSRFSGSGSGTDFTLTISSLQPEDFATYYCQQAFYAHLLTFGQGTKLEIKR", "Absorbance": 0.617}
{"binder": "human synthetic scFv fragment 1 (scFv, also called scFv 1) scFv: EVQLLESGGGLVQPGGSLRLSCAASGFTFSSYAMSWVRQAPGKGLEWVSAISGSGGSTYYASVKGRFTISRDNSKNTLYLQMNSLRAEDTAVYYCARHYYNWASGYFDYWGQGTLVTVSSGGGGSGGGGSGGGGSDIQMTQSPSSLSASVGDRVTITCRASQSISSYLNWYQQKPGKAPKLLIYAASSLQSGVPSRFSGSGSGTDFTLTISSLQPEDFATYYCQQGWYPPTFGQGTKLEIKR", "Absorbance": 0.643}
{"binder": "human synthetic scFv fragment 8 (scFv, also called scFv 8) scFv: EVQLLESGGGLVQPGGSLRLSCAASGFTFSSYAMSWVRQAPGKGLEWVSAISGSGGSTYYASVKGRFTISRDNSKNTLYLQMNSLRAEDTAVYYCARVFYYGPYYFSYHFDYWGQGTLVTVSSGGGGSGGGGSGGGGSDIQMTQSPSSLSASVGDRVTITCRASQSISSYLNWYQQKPGKAPKLLIYAASSLQSGVPSRFSGSGSGTDFTLTISSLQPEDFATYYCQQDDRGLPTFGQGTKLEIKR", "Absorbance": 0.653}
{"binder": "human synthetic scFv fragment 7 (scFv, also called scFv 7; AK7) scFv: EVQLLESGGGLVQPGGSLRLSCAASGFTFSSYAMSWVRQAPGKGLEWVSAISGSGGSTYYASVKGRFTISRDNSKNTLYLQMNSLRAEDTAVYYCARYTHSTYGYRLDYWGQGTLVTVSSGGGGSGGGGSGGGGSDIQMTQSPSSLSASVGDRVTITCRASQSISSYLNWYQQKPGKAPKLLIYAASSLQSGVPSRFSGSGSGTDFTLTISSLQPEDFATYYCQQDAYHPPTFGQGTKLEIKR", "Absorbance": 1.36}
{"binder": "human synthetic scFv fragment 10 (scFv, also called scFv 10) scFv: EVQLLESGGGLVQPGGSLRLSCAASGFTFSSYAMSWVRQAPGKGLEWVSAISGSGGSTYYASVKGRFTISRDNSKNTLYLQMNSLRAEDTAVYYCARYSYYYTWLDYWGQGTLVTVSSGGGGSGGGGSGGGGSDIQMTQSPSSLSASVGDRVTITCRASQSISSYLNWYQQKPGKAPKLLIYAASSLQSGVPSRFSGSGSGTDFTLTISSLQPEDFATYYCQQFYPSLHTFGQGTKLEIKR", "Absorbance": 1.64}
{"binder": "human synthetic scFv fragment 3 (scFv, also called scFv 3) scFv: EVQLLESGGGLVQPGGSLRLSCAASGFTFSSYAMSWVRQAPGKGLEWVSAISGSGGSTYYASVKGRFTISRDNSKNTLYLQMNSLRAEDTAVYYCARVYYHYYYYGSFDYWGQGTLVTVSSGGGGSGGGGSGGGGSDIQMTQSPSSLSASVGDRVTITCRASQSISSYLNWYQQKPGKAPKLLIYAASSLQSGVPSRFSGSGSGTDFTLTISSLQPEDFATYYCQQSTHLSTFGQGTKLEIKR", "Absorbance": 0.903}
{"binder": "human synthetic scFv fragment 2 (scFv, also called scFv 2) scFv: EVQLLESGGGLVQPGGSLRLSCAASGFTFSSYAMSWVRQAPGKGLEWVSAISGSGGSTYYASVKGRFTISRDNSKNTLYLQMNSLRAEDTAVYYCARTTSYYGYSAHFIDYWGQGTLVTVSSGGGGSGGGGSGGGGSDIQMTQSPSSLSASVGDRVTITCRASQSISSYLNWYQQKPGKAPKLLIYAASSLQSGVPSRFSGSGSGTDFTLTISSLQPEDFATYYCQQGYGPFTFGQGTKLEIKR", "Absorbance": 0.394}
